This is an account of results in US20250026813A1 (published 2025).

Assay [1] addresses RBD domain of the spike protein of SARS-CoV-2 virus (Acro Biosystems SPD-C52H3) (SARS-CoV-2, UniProt P0DTC2 319-537).
Assay [2] has as its target T1, RBD domain of the spike protein of SARS-CoV-2 virus (Acro Biosystems SPD-C52H3) (SARS-CoV-2, UniProt P0DTC2 319-537).
T1 construct: domain: RBD domain
Briefly: Affinity (SPR) by Octet; antigen not named, taken from the epitope column.

Numbering of substitutions follows the chain as printed.

B1: IMPI-054 (antibody, V domains shown)
VH: EVQLVESGGGLIQPGGSLRLSCAASGLTVSSNYMSWVRQAPGKGLEWVSIIYSGGSTYYADSVKGRFTISRDNSKNTLYLQMNSLRAEDTAVYYCARLGGYYYYGMDVWGQGTTVTVSS
VL: DIQMTQSPSSLSASVGERVTITCQASQDIRNYLNWYQKKPGKAPKLLIYDSSNLETGVPSRFSGSGSGTDFTFTISSLQPEDIATYYCQQYDNLPITFGQGTRLEIK
For the molecule B1, the IC50 in assay [1] turned out to be 2.28 nM.

B2: IMPI-042 (antibody, V domains shown)
VH: B1 VH
VL: B1 VL with S65G
Turning to B2, the concentration for half-maximal inhibition (IC50) in assay [1] was found to be 5.54 nM.

B3: IMPI-055 (antibody, V domains shown)
VH: QVQLVQSGAEVKKPGASVKVSCKASGYTFTSYDINWVRQATGQGLEWMGWMNPNSGNTGYAQKFQGRVTMTRDTSINTAYMELSSLRSEDTAVYFCARGGRYCSDVTCYSGEPFDYWGQGTLVTVSS
VL: EIMLTQSPDFQSVTPKEKVTITCRASQSIGSSLHWYQQKPDQSPKLLIKFASQSISGVPSRFSGSGSGTDFTLTINSLEAEDAAAYYCHQSSSLPHTFGPGTKVEIK
B3: in assay [1], the half-maximal inhibitory concentration (IC50) worked out at 3.39 nM.

B4: IMPI-029 (antibody, V domains shown)
VH: EVQLVESGGGLIQPGGSLRLSCAASGVTVSSNYMNWVRQAPGKGLEWVSVIYSGGSTYYADSVKGRFTISRDNSKNTLFLQMNSLRAEDSAVYYCARDLGPYGVDVWGQGTTVTVSS
VL: DIQLTQSPSFLSASVGDRVTITCWASQGISSYLAWYQQKPGKAPKLLIYAASTLQSGVPSRFSGSGSGTEFTLTISSLQPEDFATYYCQELNSYPLTFGQGTRLEIK
Molecule B4 had an IC50 in assay [1] of 1.26 nM.

B5: IMPI-017 (antibody, V domains shown)
VH: B4 VH with S25A, V27L, A40V, F79Y, S90T, P101T, Y102L, V104M
VL: B4 VL with S31T, E90Q, P95L, L96P, R103K, L104V
In assay [1], B5 returned a concentration for half-maximal inhibition (IC50) of 0.832 nM.

B6: IMPI-047 (antibody, V domains shown)
VH: B4 VH with V27F, F79Y, A87T, S90T, G100V, P101A, V104M
VL: B4 VL with L46V, E90L, Y94N, Q100G, R103K, L104V
In assay [1], B6 yielded an IC50 of 3.36 nM.

B7: IMPI-056 (antibody, V domains shown)
VH: B4 VH with V27L, G44K, Y58F, K64R
VL: B4 VL with E90Q
Take B7: the midpoint of inhibition in assay [1], the IC50, lay at 1.93 nM.

B8: IMPI-005 (antibody, V domains shown)
VH: B4 VH with V27F
VL: B4 VL
In the case of B8, in assay [1], the IC50 turned out to be 3.18 nM.

B9: IMPI-002 (antibody, V domains shown)
VH: B4 VH with N35S, W47G, F79Y, S90T, L99T, G100V, P101V, V104M
VL: B4 VL with E90Q, Q100G, R103K, L104V
As to B9, the midpoint of inhibition in assay [1], the IC50, lay at 8.15 nM.

B10: IMPI-021 (antibody, V domains shown)
VH: B4 VH with N35S, Y58F, F79Y, S90T, G100S, P101Y, V104M
VL: B4 VL with R61K, E90Q, L96C, T97S, R103K
Consider B10, for which half-maximal inhibition in assay [1] (IC50) required 4.87 nM.

B11: YANG-1116 (antibody, V domains shown)
VH: EVQLVESGGGLVKPGGSLRLSCEASGFNFRSYALNWVRQAPGKGLEWVSSISTGSSYIFYADSVKGRFTISRDNAKNSLSLQMNSLRAEDTAVYYCAKTGDLPFFDYWGQGTLVTVSS
VL: QSALTQPASVSGSPGQSITISCTGTSSDVGRYNYVSWYQQHPGKAPKLMIYEVSNRPSGVSNRFSGSKSGNTASLTISGLQAEDEADYYCISYTSSSTMVFGGGTKLTVL
With B11, in assay [2], the equilibrium dissociation constant (Kd) is under 0.1 nM.

B12: YANG-1118 (antibody, V domains shown)
VH: B11 VH with E23A, N28T, R30S, N77H
VL: B11 VL
B12 gave a Kd in assay [2] of under 0.1 nM.

B13: YANG-1117 (antibody, V domains shown)
VH: B11 VH with E23A, N28T, R30S, A33S, L34V, S80Y, A97V
VL: B11 VL with S26R, S54T, I91S, S95N, S96N
In turn, B13 registered a Kd in assay [2] of under 0.1 nM.

What is called IC50 is the point on the concentration scale where inhibition reaches its midpoint. A lower IC50 goes with greater potency. What is called Kd is the equilibrium constant for the complex coming apart. A high value points to lower affinity.
